Numbering of substitutions follows the chain as printed.
B1: 134 (protein)
chain: MGHHHHHHGGSVSDVPRDLEVVAATPTSLLISWDAPAVTVEQYYIAYYDEKEPSSYQYFRVPGSKSTATISGLKPGVEYAIFVNAVTRSGVLPEFSLPISINYRTEGS
modifications: Adnectin
B2: 136 (protein)
chain: B1 chain with A46G, D49V, K51A, R60F, E78D, R88A, V91R, L92G, F95Y
modifications: Adnectin
B3: 321 (protein)
chain: MGHHHHHHGGSVSDVPRDLEVVAATPTSLLISWEYKVHPYRYYRITYGETGGNSPVQEFTVPSVLSSAXLSGLKPGVDYTITVYAVTYGDDSAPISINYRTEID
modifications: not fully specified
B4: 137 (protein)
chain: MGVSDVPRDLEVVAATPTSLLISWHDGIGEERYYRITYGETGGNSPVQEFTVPMDDITATISGLKPGVDYTITVYAVTVGDVISVLHEPISINYRTEIDKPSQHHHHHH
modifications: Adnectin
B5: 310 (protein)
chain: MGHHHHHHGGSVSDVPRDLEVVAATPTSLLISWEYKVHPYRYYRITYGETGGNSPVQEFTVPSVLSTATINGLKPGVDYTITVYAVTYGDDSAPISINYRTEID
modifications: Adnectin
B6: 329 (protein)
chain: B5 chain with N71S, D91V
modifications: Adnectin
B7: 311 (protein)
chain: B5 chain with T69E, N71S
modifications: Adnectin
B8: 345 (protein)
chain: B5 chain with N71S, A93R
modifications: Adnectin
B9: 357 (protein)
chain: B5 chain with N71S, D91L
modifications: Adnectin
B10: 314 (protein)
chain: B5 chain with H38A, P39Y, Y40K, N71S
modifications: Adnectin
B11: 337 (protein)
chain: B5 chain with N71S, A93Y
modifications: Adnectin
B12: 319 (protein)
chain: B5 chain with H38S, P39H, Y40G, N71S
modifications: Adnectin
B13: 342 (protein)
chain: B5 chain with N71S, D90I
modifications: Adnectin
B14: 354 (protein)
chain: B5 chain with H38S, P39A, Y40W, N71S
modifications: Adnectin
B15: 315 (protein)
chain: B5 chain with H38D, P39R, Y40W, N71S
modifications: Adnectin
B16: 349 (protein)
chain: B5 chain with H38Y, P39A, N71S
modifications: Adnectin
B17: 312 (protein)
chain: B5 chain with T60L, N71S
modifications: Adnectin
B18: 347 (protein)
chain: B5 chain with H38N, P39Y, Y40R, N71S
modifications: Adnectin
B19: 333 (protein)
chain: B5 chain with H38S, Y40W, N71S
modifications: Adnectin
B20: 133 (protein)
chain: B5 chain with P39Y, Y40D, N71S, D90V, A93D
modifications: Adnectin
B21: 344 (protein)
chain: B5 chain with N71S, A93E
modifications: Adnectin
B22: 327 (protein)
chain: B5 chain with H38T, P39Y, Y40E, N71S
modifications: Adnectin
B23: 359 (protein)
chain: B5 chain with H38S, P39A, N71S
modifications: Adnectin
B24: 352 (protein)
chain: B5 chain with N71S, D91L
modifications: Adnectin
B25: 320 (protein)
chain: B5 chain with H38T, P39T, Y40W, N71S
modifications: Adnectin
B26: 322 (protein)
chain: B5 chain with N71S, D90T
modifications: Adnectin
B27: 355 (protein)
chain: B5 chain with H38S, P39T, N71S
modifications: Adnectin
B28: 350 (protein)
chain: B5 chain with E58T, N71S
modifications: Adnectin
B29: 348 (protein)
chain: B5 chain with H38S, P39T, Y40W, N71S
modifications: Adnectin
B30: 334 (protein)
chain: B5 chain with H38T, P39Y, Y40R, N71S
modifications: Adnectin
B31: 316 (protein)
chain: B5 chain with K36A, N71S
modifications: Adnectin
B32: 341 (protein)
chain: B5 chain with E58S, N71S
modifications: Adnectin
B33: 338 (protein)
chain: B5 chain with H38N, P39R, N71S
modifications: Adnectin
B34: 325 (protein)
chain: B5 chain with H38N, P39H, Y40D, N71S
modifications: Adnectin
B35: 353 (protein)
chain: B5 chain with N71S, A93G
modifications: Adnectin
B36: 318 (protein)
chain: B5 chain with H38N, P39G, N71S
modifications: Adnectin
B37: 358 (protein)
chain: B5 chain with N71S, A93T
modifications: Adnectin
B38: 326 (protein)
chain: B5 chain with H38S, P39H, Y40R, N71S
modifications: Adnectin
B39: 324 (protein)
chain: B5 chain with N71S, A93N
modifications: Adnectin
B40: 323 (protein)
chain: B5 chain with N71S, D91Q
modifications: Adnectin
B41: 356 (protein)
chain: B5 chain with T69E, I70L, N71S
modifications: Adnectin
B42: 332 (protein)
chain: B5 chain with H38N, P39R, Y40W, N71S
modifications: Adnectin
B43: 336 (protein)
chain: B5 chain with N71S, A93D
modifications: Adnectin
B44: 339 (protein)
chain: B5 chain with H38S, P39R, Y40W, N71S
modifications: Adnectin
B45: 335 (protein)
chain: B5 chain with N71S, D91E
modifications: Adnectin
B46: 317 (protein)
chain: B5 chain with H38N, P39A, N71S
modifications: Adnectin
B47: 346 (protein)
chain: B5 chain with N71S, N98Q
modifications: Adnectin
B48: 330 (protein)
chain: B5 chain with N71S, A93P
modifications: Adnectin
B49: 313 (protein)
chain: B5 chain with H38A, P39H, Y40G, N71S
modifications: Adnectin
B50: 135 (protein)
chain: B5 chain with E34K, K36N, H38N, P39A, N71S, D90V, D91H, A93S
modifications: Adnectin
B51: 343 (protein)
chain: B5 chain with N71S, D91H
modifications: Adnectin
B52: 351 (protein)
chain: B5 chain with E58A, N71S, D90K
modifications: Adnectin

Test system: NL-Rluc virus
Assay: Combinectin potency assay: antiviral EC50, NL-Rluc virus in MT-2 cells, luciferase readout
Type: cell-based, HIV-1
Settings: Anti-N17 Adnectin, Table 3
Method in brief: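 Peptides, serially diluted threefold over 11 points in triplicate, were exposed for 4–5 days to MT-2 cells preinfected 1 h with NL-Rluc virus (MOI 0.01). Replication read out as Renilla luciferase signal, with EC50 derived against untreated infected controls.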

| Molecule | EC50 [nM] |
| --- | --- |
| B1 | 5 |
| B2 | 5 |
| B3 | 55 |
| B4 | 80 |
| B5 | 62 |
| B6 | 102 |
| B7 | 42 |
| B8 | > 1000 |
| B9 | 178 |
| B10 | > 1000 |
| B11 | > 1000 |
| B12 | > 1000 |
| B13 | > 1000 |
| B14 | > 1000 |
| B15 | > 1000 |
| B16 | > 1000 |
| B17 | 37 |
| B18 | > 1000 |
| B19 | > 1000 |
| B20 | 42 |
| B21 | > 1000 |
| B22 | > 1000 |
| B23 | > 1000 |
| B24 | 77 |
| B25 | > 1000 |
| B26 | 96 |

| Molecule | EC50 [nM] |
| --- | --- |
| B27 | > 1000 |
| B28 | 191 |
| B29 | > 1000 |
| B30 | > 1000 |
| B31 | 331 |
| B32 | > 1000 |
| B33 | > 1000 |
| B34 | > 1000 |
| B35 | 19 |
| B36 | > 1000 |
| B37 | > 1000 |
| B38 | > 1000 |
| B39 | 487 |
| B40 | 126 |
| B41 | 31 |
| B42 | > 1000 |
| B43 | 171 |
| B44 | > 1000 |
| B45 | 112 |
| B46 | > 1000 |
| B47 | 83 |
| B48 | 99 |
| B49 | > 1000 |
| B50 | > 1000 |
| B51 | 122 |
| B52 | 215 |

— US11155602B2, “Polypeptides targeting HIV fusion” (priority 2015, dated 2021)
